Assay results: IntAct's records for PubMed 19019158

B1: TrfB transcriptional repressor protein (Escherichia coli), P03052 (parent)
chain: MKKRLTESQFQEAIQGLEVGQQTIEIARGVLVDGKPQATFATSLGLTRGAVSQAVHRVWAAFEDKNLPEGYARVTAVLPEHQAYIVRKWEADAKKKQETKR

Variants of: B1
Conditions: with korb2_ecolx korB

Variant	effect of a mutation on the interaction
MKKRLTESQFQEAIQGLEVGQQTIEIARGVLVDGKPQATFATSLGLTRGAVSQAVHRVWAAFEDKNLPEGYARATAVLPEHQAYIVRKWEADAKKKQETKR [V74A]	disrupting interaction strength
MKKRLTESQFQEAIQGLEVGQQTIEIARGVLVDGKPQATFATSLGLTRGAVSQAVHRVWAAFEDKNLAEGYARVTAVLPEHQAYIVRKWEADAKKKQETKR [P68A]	decreasing interaction strength

Now from value to variant:

effect of a mutation on the interaction	Variant
disrupting interaction strength	MKKRLTESQFQEAIQGLEVGQQTIEIARGVLVDGKPQATFATSLGLTRGAVSQAVHRVWAAFEDKNLPEGYARVTAVLPEHQAAIVRKWEADAKKKQETKR [Y84A]
disrupting interaction strength	MKKRLTESQFQEAIQGLEVGQQTIEIARGVLVDGKPQATFATSLGLTRGAVSQAVHRVWAAFEDKNLPEGYARVTAVAPEHQAYIVRKWEADAKKKQETKR [L78A]
decreasing interaction strength	MKKRLTESQFQEAIQGLEVGQQTIEIARGVLVDGKPQATFATSLGLTRGAVSQAVHRVWAAFEDKNLPEGYARVTAVLPEHAAYIVRKWEADAKKKQETKR [Q82A]
